Measurements: IntAct's records for PubMed 16115628

B1: 1-phosphatidylinositol 4,5-bisphosphate phosphodiesterase delta-1 (Homo sapiens), P51178 (parent)
chain: MDSGRDFLTLHGLQDDEDLQALLKGSQLLKVKSSSWRRERFYKLQEDCKTIWQESRKVMRTPESQLFSIEDIQEVRMGHRTEGLEKFARDVPEDRCFSIVFKDQRNTLDLIAPSPADAQHWVLGLHKIIHHSGSMDQRQKLQHWIHSCLRKADKNKDNKMSFKELQNFLKELNIQVDDSYARKIFRECDHSQTDSLEDEEIEAFYKMLTQRVEIDRTFAEAAGSGETLSVDQLVTFLQHQQREEAAGPALALSLIERYEPSETAKAQRQMTKDGFLMYLLSADGSAFSLAHRRVYQDMGQPLSHYLVSSSHNTYLLEDQLAGPSSTEAYIRALCKGCRCLELDCWDGPNQEPIIYHGYTFTSKILFCDVLRAIRDYAFKASPYPVILSLENHCTLEQQRVMARHLHAILGPMLLNRPLDGVTNSLPSPEQLKGKILLKGKKLGGLLPPGGEGGPEATVVSDEDEAAEMEDEAVRSRVQHKPKEDKLRLAQELSDMVIYCKSVHFGGFSSPGTPGQAFYEMASFSENRALRLLQESGNGFVRHNVGHLSRIYPAGWRTDSSNYSPVEMWNGGCQIVALNFQTPGPEMDVYQGRFQDNGACGYVLKPAFLRDPNGTFNPRALAQGPWWARKRLNIRVISGQQLPKVNKNKNSIVDPKVTVEIHGVSRDVASRQTAVITNNGFNPWWDTEFAFEVVVPDLALIRFLVEDYDASSKNDFIGQSTIPLNSLKQGYRHVHLMSKNGDQHPSATLFVKISLQD

Variants of: B1
Conditions: with imb1_human KPNB1, Q14974
imb1_human KPNB1, Q14974, sequence (Q14974 whole entry): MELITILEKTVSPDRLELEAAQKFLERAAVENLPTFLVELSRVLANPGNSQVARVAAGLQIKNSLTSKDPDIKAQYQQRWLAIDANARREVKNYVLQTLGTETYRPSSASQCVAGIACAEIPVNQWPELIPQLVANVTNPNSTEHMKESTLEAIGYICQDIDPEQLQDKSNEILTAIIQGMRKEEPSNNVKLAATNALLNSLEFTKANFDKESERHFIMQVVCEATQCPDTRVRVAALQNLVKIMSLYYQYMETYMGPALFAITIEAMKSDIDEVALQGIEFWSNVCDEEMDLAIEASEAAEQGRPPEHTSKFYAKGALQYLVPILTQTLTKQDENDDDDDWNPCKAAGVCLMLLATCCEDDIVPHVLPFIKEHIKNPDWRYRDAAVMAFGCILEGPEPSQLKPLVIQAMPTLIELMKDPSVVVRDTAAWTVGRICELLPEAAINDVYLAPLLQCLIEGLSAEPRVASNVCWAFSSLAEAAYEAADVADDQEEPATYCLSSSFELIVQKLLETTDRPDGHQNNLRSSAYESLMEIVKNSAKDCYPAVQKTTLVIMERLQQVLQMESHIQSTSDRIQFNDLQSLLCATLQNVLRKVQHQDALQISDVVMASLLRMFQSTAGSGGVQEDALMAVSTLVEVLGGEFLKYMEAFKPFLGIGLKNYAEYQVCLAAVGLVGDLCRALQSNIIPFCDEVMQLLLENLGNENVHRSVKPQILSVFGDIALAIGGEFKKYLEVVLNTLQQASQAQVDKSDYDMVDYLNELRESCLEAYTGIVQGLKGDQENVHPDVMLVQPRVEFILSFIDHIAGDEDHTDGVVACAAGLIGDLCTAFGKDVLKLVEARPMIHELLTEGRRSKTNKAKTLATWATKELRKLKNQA

Row | effect of a mutation on the interaction | Variant
1 | decreasing interaction | E341A
